Measured values: patent publication US11156615B2 (priority 2015, dated 2021)
Numbering of substitutions follows the chain as printed. Like-named read-outs stand apart in the source and are kept apart here. One block for each molecule: values may come before it.

Assays:
[1] = Thermostability: mid-point thermal denaturation temperature (Tm) from temperature-dependent fluorescence (Roche LightCycler); format: physicochemical
In short: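 Unfolding tracked by SYPRO binding to denatured protein, fluorescence at 488 nm/510 nm recorded on a LightCycler as temperature rose in 1 K steps. Tm taken as denaturation mid-point, for protein in solution or immobilized on Ni-NTA or NHS-agarose beads.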

[2] = format: physicochemical
Text: (§1) Panels A-C: ttGBP182C.2.0-Imm0; Panels D-F: ttGBP182C.2.0-Imm1 (see FIG. 13). (A) Solution (Tm=347.6K). (B) Immobilized on Nickel-nitriloacetic acid (Ni-NTA) beads (Tm=346.7K). (C) Reconstituted, desiccated Ni-NTA beads (Tm=347.6K). (D) Fluorescence response of ttGGBP5.2 Imm1 immobilized on NHS-functionalized agarose beads. Data was collected on a Roche LightCycler real-time PCS instrument, recording emission intensities at 488 nm and 510 nm as a function of temperature in a 384-well microtiter plate. […] Temperature melts of twelve different wells. Apo protein thermostability as reported by the denaturation mid-point temperature is 349 K, similar to the protein free in solution. […] (F) Representative Langmuir ligand-binding curve extracted from the three-dimensional data.
(§2) Site-specific immobilization minimizes perturbation of the sensing mechanism. […] Similarly, hexa-lysine fusion domains were immobilized on agarose beads derivatized with N-hydroxysuccinimide, and the QNK- or βZif-fusion on iodacetyl-derivatized beads.

[3] = Glucose binding: isothermal fluorescence titrations, ratiometric (appKd) and monochromatic (trueKd) fits; details: Badan conjugate, room temperature
Text: 2 For a single glucose-binding site, the fractional saturation is given by
[formula] where ^apoIλ2 and ^satIλ2 are the emission intensities of the monochromatic signal at wavelength λ2 of the ligand-free and ligand-bound protein, respectively.

[4] = Galactose binding: isothermal fluorescence titrations of conjugates; details: Badan conjugate
[5] = Glucose-dependent fluorescence emission intensity spectra of conjugates (Nanodrop3300); format: biochemical; details: Badan conjugate of ttGGBP.17C mutant; Nanodrop3300
[6] = Glucose titration of bead-immobilized sensor; format: binding; details: read-out: Kd (glucose); 25° C.; immobilized on NHS-functionalized agarose beads
Text: as §1
Data were highly precise, being reproducible <0.2% coefficient of variance.
as §2

B1: ttGBP182C.2.0-Imm0: ttGGBP182C.2.0 immobilization fusion construct Imm0 (SEQ ID NO: 173), Acrylodan labelled (conjugate)
chain: MKQLNIGVAIYKFDDTFMTGVRNAMTAEAQGKAKLNMVDSQNSQPTQNDQVDLFITKKMNALAINPVDRTAAGTIIDKAKQANIPVVFFNKEPLPEDMKKWDKVYYVGAKAEQSGILQGQIMADYWKAHPEADKNHDGVMQYVMLMGEPGHQDAILRTQYSIQTVKDAGIKVQELAKDYANCDRVTAHDKMAAWLSSFGDKIEAVFANNDDMALGAIEALKSAGYFTGNKYIPVVGVDATAPGIQAIKDGTLLGTVLNDAKNQAKATFNIAYELAQGITPTKDNIGYDITDGKYVWIPYKKITKDNISDAEQGGSHHHHHH
modifications: Acrylodan label; ttGGBP182C.2.0_Imm0
Tm ([1]; solution (FIG. 14A)): 74.5 °C | Tm ([2]; immobilized on Ni-NTA beads (FIG. 14B)): 73.6 °C | Tm ([2]; reconstituted, desiccated Ni-NTA beads (FIG. 14C)): 74.5 °C

Kd ([3]; read-out: Glucose appKd, dichromatic ratiometry): 60 µM | Kd ([3]; read-out: Glucose trueKd, monochromatic titration curves): 70 µM | S, selectivity = trueKd(galactose)/trueKd(glucose) ([4]; S > 1, selective for glucose): 37 | Kd ([4]; read-out: Galactose trueKd, monochromatic titration curves, room temperature): 2600 µM
B2: ttGGBP17C.28: affinity-tuning mutant, 17C background, SEQ ID NO: 86 (protein)
chain: B1 chain with F17C, K91R, E148Q, C182W, A260Y
modifications: ttGGBP17C.28 (affinity-tuning mutant, 17C background (Table 6) with signal peptide replaced with M and GGSHHHHHH at C-terminus)
apoTm ([1]; Badan conjugate, apo-protein): 346 K | Type of fluorescence response to glucose [5]: i (i, intensity increase only)

Kd [6]: 4800 µM
B3: ttGGBP5.2 Imm1: ttGGBP182C.2.0 immobilization fusion construct Imm1 (SEQ ID NO: 175), labelled, on NHS-functionalized agarose beads (conjugate)
chain: MKQLNIGVAIYKFDDTFMTGVRNAMTAEAQGKAKLNMVDSQNSQPTQNDQVDLFITKKMNALAINPVDRTAAGTIIDKAKQANIPVVFFNKEPLPEDMKKWDKVYYVGAKAEQSGILQGQIMADYWKAHPEADKNHDGVMQYVMLMGEPGHQDAILRTQYSIQTVKDAGIKVQELAKDYANCDRVTAHDKMAAWLSSFGDKIEAVFANNDDMALGAIEALKSAGYFTGNKYIPVVGVDATAPGIQAIKDGTLLGTVLNDAKNQAKATFNIAYELAQGITPTKDNIGYDITDGKYVWIPYKKITKDNISDAEQGGSGGSKKKKKKGGSHHHHHH
modifications: fluorescent label; immobilized on NHS-agarose beads; ttGGBP182C.2.0_Imm1
denaturation mid-point temperature (apo protein thermostability) [2]: 349 K
